Values quoted from earlier work as cited in publication PMC5806463.

Molecular target: IL-18BP (Homo sapiens) (UniProt O95998)
Sequence (O95998 31-194): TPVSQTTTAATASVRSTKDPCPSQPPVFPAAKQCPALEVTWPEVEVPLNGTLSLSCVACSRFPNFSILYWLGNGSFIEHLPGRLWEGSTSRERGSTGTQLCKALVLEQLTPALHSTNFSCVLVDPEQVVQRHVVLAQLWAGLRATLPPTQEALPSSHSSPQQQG

Chain of IL-18 (Q14116 37-193): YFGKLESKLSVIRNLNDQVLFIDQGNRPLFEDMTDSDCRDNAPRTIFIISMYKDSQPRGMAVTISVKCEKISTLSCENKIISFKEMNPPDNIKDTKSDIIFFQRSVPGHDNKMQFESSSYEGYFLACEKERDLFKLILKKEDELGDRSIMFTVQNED

## IL-18 (from UniProt Q14116)
  Kd: 400 pM
